We go through 2 molecules from patent publication US20150087584A1 (COUNCIL OF SCIENTIFIC AND INDUSTRIAL RESEARCH, published 2015).

This experiment deals with bovine trypsin (bovine, UniProt P00760 24-246). The experiment in a line: cell-based or functional assay.
bovine trypsin, sequence (P00760 24-246): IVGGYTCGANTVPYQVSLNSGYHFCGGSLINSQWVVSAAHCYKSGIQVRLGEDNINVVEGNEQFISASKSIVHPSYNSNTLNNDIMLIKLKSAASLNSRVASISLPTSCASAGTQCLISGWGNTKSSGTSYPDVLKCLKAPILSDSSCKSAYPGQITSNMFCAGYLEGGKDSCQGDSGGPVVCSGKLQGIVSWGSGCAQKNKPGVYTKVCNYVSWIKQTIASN

NRLCTNCCAGRKGCNYYSADGTFICEGESDPNNPKACPRNCDPNIAYSLC (other) [inhibitory repeat domain IRD-12 of Capsicum annuum Pin-II proteinase inhibitors (CanPIs)]: the “IC50 of inhibition of bovine trypsin activity (BApNA substrate)” value was roughly 65 µM.

For the molecule QPICTNSSAGLKGCNYYNADGTFICEGESDPNHPKACPKNCDPNIAYSLC (other) [inhibitory repeat domain IRD-9 of Capsicum annuum Pin-II proteinase inhibitors (CanPIs)], the “IC50 of inhibition of bovine trypsin activity (BApNA substrate)” value is roughly 2.2 µM.
